Measurements from patent US20250115668A1 (BIOCYTOGEN PHARMACEUTICALS BEIJING, published 2025).
Where two headings read alike, the source gives them in different places.

T1: Human OX40 protein having a His-Tag (human, UniProt P43489 29-216, limits assumed)
T1 construct: Bought recombinant protein; also called hOX40-His; hOX40; not shown: His tag
T1 sequence (looked up): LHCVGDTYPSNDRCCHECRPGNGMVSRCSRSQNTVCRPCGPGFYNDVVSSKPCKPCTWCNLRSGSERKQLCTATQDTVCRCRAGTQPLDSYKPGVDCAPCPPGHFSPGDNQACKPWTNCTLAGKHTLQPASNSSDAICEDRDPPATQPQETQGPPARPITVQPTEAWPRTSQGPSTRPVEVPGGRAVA

T2: human CTLA4 expressed on transfected cells (human, UniProt P16410 36-223)
T2 construct: whole, on cells; also called hCTLA4 on HEK293T-hCTLA4-hOX40 cells; on Jurkat-luc-hCTLA4
T2 sequence (looked up): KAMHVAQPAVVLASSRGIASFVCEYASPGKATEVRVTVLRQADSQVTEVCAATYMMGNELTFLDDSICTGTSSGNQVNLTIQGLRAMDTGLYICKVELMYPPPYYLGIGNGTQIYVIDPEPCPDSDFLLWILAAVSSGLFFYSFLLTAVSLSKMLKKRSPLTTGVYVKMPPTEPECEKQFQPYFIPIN

T3: human OX40 expressed on transfected cells (human, UniProt P43489 29-277)
T3 construct: whole, on cells; also called hOX40 on HEK293T-hCTLA4-hOX40 cells; on Jurkat-luc-hOX40
T3 sequence (looked up): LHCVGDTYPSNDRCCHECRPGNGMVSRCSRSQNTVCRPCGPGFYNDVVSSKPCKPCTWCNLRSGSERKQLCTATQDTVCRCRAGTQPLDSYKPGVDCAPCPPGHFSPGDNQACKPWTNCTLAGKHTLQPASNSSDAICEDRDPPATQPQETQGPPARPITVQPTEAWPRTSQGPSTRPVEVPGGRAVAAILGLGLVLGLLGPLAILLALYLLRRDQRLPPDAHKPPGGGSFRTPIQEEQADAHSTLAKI

T4: Human CTLA4 protein having a His-Tag (human, UniProt P16410 37-162, limits assumed)
T4 construct: Bought recombinant protein; also called hCTLA4-His; hCTLA4; not shown: His tag
T4 sequence (looked up): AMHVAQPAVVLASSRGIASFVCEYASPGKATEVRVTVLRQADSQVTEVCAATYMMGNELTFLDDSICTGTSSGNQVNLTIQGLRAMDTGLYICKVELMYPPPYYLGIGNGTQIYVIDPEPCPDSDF

B1: OX-H7-CT-3D2-IgG1-SI (bispecific antibody, V domains shown)
VH 1: QITLKESGPTLVKPAQTLTLTCTFSGFSLSTSGVGVGWIRQPPGKALEWLALIYWDDDKLYSPSLKSRLTITKDTSKNQVVLAMTNMDPVDTATYYCAHSQLGRDDYWGQGTLVTVSS
VH 2: QVQLVESGPGLVKPSETLSLTCTVSGDSIRSSHYYWGWIRQPPGKGLEWIGSIYFNGITYYSPSLKSRVTISVDTSKNQFSLKLTSVTAADTAVFYCARHNNYYDSSGYWYYFDYWGQGTLVTVSS
VL: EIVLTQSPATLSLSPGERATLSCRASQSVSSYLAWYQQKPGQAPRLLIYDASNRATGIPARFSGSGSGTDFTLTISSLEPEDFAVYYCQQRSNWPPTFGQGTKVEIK
notes: SI mutations (S239D, I332E, EU)
B2: OX-4C8-CT-3D2-IgG1-SI (bispecific antibody, V domains shown)
VH 1: QVQLVESGPTLVKPTQTLTLTCTFSGFSLSTTRVGVGWIRQPPGKALEWLALIYWDDDKRYSPSLKNRLTLTKDTSKNQVVLTMTNMDPVDTATYYCAHFGSGTYYNVDYWGQGTLVTVSSAS
VH 2: B1 VH 2
VL: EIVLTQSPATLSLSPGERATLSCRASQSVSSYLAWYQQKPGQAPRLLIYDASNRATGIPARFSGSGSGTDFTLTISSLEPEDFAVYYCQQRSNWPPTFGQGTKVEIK
notes: 1+1 knobs-into-holes human IgG1 with common light chain; SI mutations (S239D, I332E, EU)
B3: CT-3D2-IgG1 (antibody, V domains shown)
VH: B1 VH 2
VL: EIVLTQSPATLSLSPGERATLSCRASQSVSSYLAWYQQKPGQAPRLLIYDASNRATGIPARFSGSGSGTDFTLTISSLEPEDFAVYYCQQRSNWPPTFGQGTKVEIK
notes: Human anti-CTLA4 antibody from RenLite mice
B4: OX-H8-CT-3D2-IgG1-SI (bispecific antibody, V domains shown)
VH 1: QITLKESGPTLVKPTQTLTLTCTFSGFSLSSRGVGVGWIRQPPGKALEWLALIYWDDDKRYSPSLKSRLTITKDTSKNQVVLTMANMDPVDTATYYCAHSHRGYENFWGQGTLVTVSS
VH 2: B1 VH 2
VL: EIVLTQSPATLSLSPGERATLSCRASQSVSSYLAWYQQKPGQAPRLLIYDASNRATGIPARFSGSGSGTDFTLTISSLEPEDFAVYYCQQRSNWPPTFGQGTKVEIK
notes: as for B1
B5: OX-4C8-IgG1 (antibody, V domains shown)
VH: QVQLVESGPTLVKPTQTLTLTCTFSGFSLSTTRVGVGWIRQPPGKALEWLALIYWDDDKRYSPSLKNRLTLTKDTSKNQVVLTMTNMDPVDTATYYCAHFGSGTYYNVDY
VL: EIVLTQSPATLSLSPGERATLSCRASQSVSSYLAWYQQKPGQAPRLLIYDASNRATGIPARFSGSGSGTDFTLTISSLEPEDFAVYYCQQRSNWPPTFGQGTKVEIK
notes: Human anti-OX40 antibody; IgG1 constant regions
B6: OX-H8-IgG1 (antibody, V domains shown)
VH: B4 VH 1
VL: EIVLTQSPATLSLSPGERATLSCRASQSINSYLAWYQQNPGQAPRLLIYLASNRATGIPARFSGSGSGTDFTLTITSLEPEDFAVYYCQQRSDWPPTFGQGTKVEIK
notes: Monoclonal anti-OX40 antibody, IgG1 constant regions

Legend:
[1] = biological target: T5, Cynomolgus/Rhesus macaque OX40/TNFRSF4/CD134 Protein, His Tag (Cynomolgus/Rhesus macaque); assay: SPR Biacore 8K, Protein A chip; antibody captured, antigen analyte
T5 construct: Bought recombinant protein; also called fasOX40-His; monkey OX40

[2] = biological target: T1, Human OX40 protein having a His-Tag; assay: as above
[3] = biological target: T2, human CTLA4 expressed on transfected …; assay: flow cytometry (MFI, anti-hIgG-Fc-Alexa Fluor 647) on HEK293T-hCTLA4-hOX40 cells co-expressing human CTLA4 and human OX40; the bispecific can bind both antigens on the same cell, signal not separable by target
[4] = biological target: T3, human OX40 expressed on transfected …; assay: as above
[5] = biological target: T2, human CTLA4 expressed on transfected …; assay: as above; remark: listed apart in the source
[6] = biological target: T3, human OX40 expressed on transfected …; assay: as above; remark: listed apart in the source
[7] = biological target: T4, Human CTLA4 protein having a His-Tag; assay: SPR Biacore 8K, Protein A chip; antibody captured, antigen analyte
[8] = biological target: T2, human CTLA4 expressed on transfected …; assay: flow cytometry (MFI, anti-hIgG-Fc-Alexa Fluor 647) on HEK293T-hCTLA4-hOX40 cells co-expressing human CTLA4 and human OX40
[9] = biological target: T2, human CTLA4 expressed on transfected …; assay: as above; remark: listed apart in the source
[10] = biological target: T2, human CTLA4 expressed on transfected …; assay: as above; remark: listed apart in the source
[11] = biological target: T2, human CTLA4 expressed on transfected …; assay: flow cytometry (MFI, anti-hIgG-Fc-Alexa Fluor 647) on HEK293T-hCTLA4-hOX40 cells co-expressing human CTLA4 and human OX40; the bispecific can bind both antigens on the same cell, signal not separable by target; remark: listed apart in the source
[12] = biological target: T3, human OX40 expressed on transfected …; assay: as above; remark: listed apart in the source
[13] = biological target: T3, human OX40 expressed on transfected …; assay: flow cytometry (MFI, anti-hIgG-Fc-Alexa Fluor 647) on HEK293T-hCTLA4-hOX40 cells co-expressing human CTLA4 and human OX40
[14] = biological target: T1, Human OX40 protein having a His-Tag; assay: SPR Biacore 8K, Protein A chip; antibody captured, antigen analyte; remark: listed apart in the source
[15] = biological target: T3, human OX40 expressed on transfected …; assay: flow cytometry (MFI, anti-hIgG-Fc-Alexa Fluor 647) on HEK293T-hCTLA4-hOX40 cells co-expressing human CTLA4 and human OX40; remark: listed apart in the source

Binder	Kd [1] [nM]	koff [1] [s⁻¹]	kon [1] [M⁻¹ s⁻¹]	Kd [2] [nM]	koff [2] [s⁻¹]	kon [2] [M⁻¹ s⁻¹]	Kd [14] [nM]	koff [14] [s⁻¹]	kon [14] [M⁻¹ s⁻¹]	further results
B1	163	0.001	6170	182	0.00169	9260	–	–	–	EC50 (read off the curve) [3]: ~1 µg/mL; EC50 (read off the curve) [4]: ~1 µg/mL
B2	6.4	0.0037	578000	17.6	0.00258	147000	–	–	–	EC50 (read off the curve) [5]: ~2 µg/mL; EC50 (read off the curve) [6]: ~2 µg/mL
B3	–	–	–	–	–	–	–	–	–	Kd [7]: 17.1 nM; koff [7]: 0.00079 s⁻¹; kon [7]: 46200 M⁻¹ s⁻¹; EC50 (read off the curve) [8]: ~2 µg/mL; EC50 (read off the curve) [9]: ~2 µg/mL; EC50 (read off the curve) [10]: ~2 µg/mL
B4	18.9	0.00966	510000	16	0.00784	490000	–	–	–	EC50 (read off the curve) [11]: ~1 µg/mL; EC50 (read off the curve) [12]: ~1 µg/mL
B5	–	–	–	–	–	–	65.4	0.00738	113000	EC50 (read off the curve) [13]: ~0.3 µg/mL
B6	–	–	–	–	–	–	8.68	0.00441	508000	EC50 (read off the curve) [15]: ~7 µg/mL
